This note sets out measurements from patent US20220226473A1, “Nucleic acid nanocarrier drug and preparation method thereof, pharmaceutical composition and application thereof” (BAI YAO ZHI DA (BEIJING) NANOBIO TECHNOLOGY CO., LTD., priority 2018, published 2022).

Substitutions are numbered along the chain they refer to. {Biotin} = biotin (Bio) of the a-strand; {Bio} = biotin of the strand

To fix the notation:
B1: D-8: extension fragment deformation+core short-sequence DNA nanoparticle, SEQ ID NO: 141-143, a-strand 3′ biotin (nucleic acid)
chain 1: GCGGCGAGCGGCGAGGAGCGTTGGGGCCGGAGGCCGG
chain 2: CCGGCCTCCGGCCCCTTCGGGGCCAGCCGCC
chain 3: GGCGGCAGGCCCCCATAGCCCTCGCCGCTCGCCGC
modifications: chain 1: DNA, 3' {Biotin}, backbone and methylation of C not given here; chain 2: DNA, backbone and methylation of C not given here; chain 3: DNA, backbone and methylation of C not given here; three-strand DNA nanoparticle carrier
B2: D-11: extension fragment deformation+core short-sequence DNA nanoparticle, SEQ ID NO: 150-152, 3′ biotin (nucleic acid)
chain 1: B1 chain 1 with G16C, G23C
chain 2: B1 chain 2 with C15G, G21C
chain 3: B1 chain 3 with C11G, C20G
modifications: chain 1: DNA, 3' {Bio}, backbone not given here; chain 2: DNA, backbone not given here; chain 3: DNA, backbone not given here; three-strand DNA nanoparticle carrier
B3: D-10: extension fragment deformation+core short-sequence DNA nanoparticle, SEQ ID NO: 147-149, 3′ biotin (nucleic acid)
chain 1: B1 chain 1
chain 2: B1 chain 2 with G20C, G21C
chain 3: B1 chain 3 with C11G, C12G
modifications: chain 1: DNA, 3' {Bio}, backbone not given here; chain 2: DNA, backbone not given here; chain 3: DNA, backbone not given here; three-strand DNA nanoparticle carrier
B4: D-9: extension fragment deformation+core short-sequence DNA nanoparticle, SEQ ID NO: 144-146, 3′ biotin (nucleic acid)
chain 1: B1 chain 1 with G16C, G23C
chain 2: B1 chain 2 with C15G, G20C, G21C
chain 3: B1 chain 3 with C11G, C12G, C20G
modifications: chain 1: DNA, 3' {Bio}, backbone and methylation of C not given here; chain 2: DNA, backbone and methylation of C not given here; chain 3: DNA, backbone and methylation of C not given here; three-strand DNA nanoparticle carrier

Test system in one data set: not listed separately
Nature of the data set: TM value detection by solubility curve method (SYBR Green I). It counts as physicochemical. To be noted: DNA nanoparticles. The procedure:
A solubility curve method is used to detect TM values of the 7 groups of the extension fragment deformation+core short-sequence RNA nanoparticles, and the samples are consistent with the potential samples.
(1) After the sample is diluted with ultrapure water, 5 μg of the diluted sample is mixed with 2 μL of SYBR Green I dye (diluted by 1:200), a final volume is 20 μL, and the dilution concentration is as follows:
(2) It is incubated for 30 min in the dark at a room temperature; and
(3) On-machine detection is performed, a program is set to start at 20 DEG C., the temperature rises per second from 0.1 DEG C. to 95 DEG C., and reading is performed every 5 s.
Due to the particularity of the RNA samples, a temperature corresponding to ½ RFUmax in a range of 20 to 90 DEG C. is used as a sample Tm value in this test.
A solubility curve method is used to detect TM values of the 7 groups of the extension fragment deformation+core short-sequence DNA nanoparticles, and the samples are consistent with the potential samples.
(1) After the sample is diluted with ultrapure water, 5 μg of the diluted sample is mixed with 2 μL of SYBR Green I dye (diluted by 1:200). a final volume is 20 μL, and the dilution concentration is as follows: […]
For B1, the “TM value (° C.)” value worked out at 48.5 °C.
Same read-out and setting: in the case of B2 it was 48.7 °C; in that of B3, 54.5~55.0 °C.
Same read-out and setting: the value for B4 was 52.5 °C.

Test system in the next data set: not listed separately
Nature of the data set: Electric potential (zeta potential) measurement of self-assembly products. It counts as physicochemical. To be noted: result over 3 detections, at 25 DEG C. The procedure: Measurement method: preparing a potential sample (the self-assembly product is dissolved in ultrapure water) and putting into a sample pool, opening a sample pool cover of an instrument, and placing the instrument;
opening software, clicking a menu MeasUre€ManUal, so a manual measurement parameter setting dialog box appears;
setting a software detection parameter;
and then clicking Ok to complete the settings, after a measurement dialog box appears, clicking start to start.
and then clicking Ok to complete the settings, after a measurement dialog box appears, clicking Start to start.
Measurement method: preparing a potential sample (the self-assembly product is dissolved in ultrapure water) and putting into a sample pool, opening a sample pool cover of an instrument, and placing the instrument:
Measurement result potential detection results of the 7 groups of the extension fragment deformation+core short-sequence RNA nanoparticles at 25 DEG C. are as follows:
setting a software detection parameter; and then
clicking Ok to complete the settings, after a measurement dialog box appears, clicking Start to start.
Measurement result potential detection results of the 7 groups of the extension fragment deformation+core short-sequence DNA nanoparticles at 25 DEG C. are as follows: […]
Consider B1, for which the “Potential ZP, Experiment result” value is −30.23 mV.
For B2, the “Potential ZP, Experiment result” value is −27.43 mV.
The same measure, in the same setting: in the case of B3 it was −25.77 mV; in that of B4, −35.07 mV.

The test system of another data set is HepG2 cells. The data set is described as follows: Cell binding of DNA nanoparticles and carrier drugs by FACS. It counts as cell-based. To be noted: HepG2, 1 μM, incubated at 37 DEG C. for 2 h, flow cytometry. The procedure: 1. A cell state is adjusted to a logarithmic growth phase, the medium is changed into a medium without biotin and folic acid, and it is incubated overnight in an incubator at 37 DEG C.
2. After incubation, cell suspension is trypsinized and collected, and centrifuged at 1000 rpm for 5 min, after the concentration is adjusted, a 2×10^6-5×10^6 cell/EP tube is taken and washed twice with 1 mL/tube of 1% BSA-PBS, and cells at the bottom of the tube is observed to prevent them from being absorbed.
3. A substance to be tested is dissolved, and the substance to be tested is diluted to a use concentration.
4. Cell supernatant is absorbed, 100 μL of a corresponding sample is added to each tube in order, light is avoided, and it is incubated at 37 DEG C. for 2 h.
5. It is washed twice with 1% BSA-PBS; and centrifuged at 1000 rpm for 5 min.
6. Finally, it is precipitated with 300 μL of PBS cell resuspension, and flow Cytometric on-machine detection (the blank carrier used in the present embodiment is labeled by Quasar670, and the doxorubicin in the carrier drug has its own fluorescence, so the detection may be performed through FL4-APC and FL2-PE respectively) is performed.
On the technique in general: In flow cytometry, cells or beads pass a laser one at a time.
As for B1, the Positive rate came to 96.9%.
As for B2, the Positive rate is recorded as 97.7%.
The same measure, in the same setting: the value for B3 was 97.9%; that for B4 was 96.7%.

Still in this data set, the particulars now being: HepG2, 2 μM, incubated at 37 DEG C. for 2 h, flow cytometry.
For B1, the Positive rate is 98.4%.
Still for that read-out and setting: in the case of B2 it was 97.8%; in that of B3, 98.3%; in that of B4, 98.1%.

The test system of a further data set is HepG2 cells. The data set is described as follows: CCK8 toxicity of DNA nanoparticles and carrier drugs. The data set is classed as cell-based. As to conditions: HepG2, CCK8, 72 hours. The procedure: A CCK8 method is used to detect the toxicity of DNA nanoparticles and carrier drugs to HepG2.
2. A sample to be tested is diluted according to the following table and added: the original culture medium is removed and 100 μL of a culture medium of the sample to be tested with the different concentration is added, and there are 3 replicate wells in each group.
In the present embodiment, the loaded drug and the blank carrier are firstly prepared into 100 μM of stock solution using the PBS, and then diluted with the complete culture medium (biotin-free DMEM). The original drug doxorubicin is firstly prepared into 100 NM of stock solution by using the DMSO, and then diluted with the complete culture medium (biotin-free DMEM). The DMSO is directly diluted with the complete medium (biotin-free DMEM).
3. After the sample to be tested is added, the 96-well plate is placed in an incubator under 37 DEG C. and 5% CO2 and incubated for 72 hours.
4. A kit is taken out and melted at a room temperature, 10 μL of CCK-8 solution is added to each wall, or the CCK8 solution is nixed with the culture medium at a ratio of 1:9, and then added to the well in an amount of 100 μL/well.
5. It is continuously incubated in the cell incubator for 4 hours, and a length of time depends on experimental conditions such as a cell type and a el density.
6. A microplate reader is used to measure an absorbance at 450 nm.
7. Calculation: cell viability (%)=(OD experimental group−OD blank group)[…]/(OD control group−OD blank group), IC50 is calculated by GraphPad Prism 5.0.
What is called IC50 is the concentration that inhibits the measured activity by half. For B1, the IC50 was above 1000 nM.
Still for that read-out and setting: the value for B2 was above 1000 nM.
Same read-out and setting: the value for B3 was above 1000 nM.
With B4, the half-maximal inhibitory concentration (IC50) was above 1000 nM.

Test system in a further data set: not listed separately
The data set is described as follows: Drug loading rate of nucleic acid nanoparticles (chemical loading, absorbance standard curve). The data set is classed as physicochemical. Further details: unit not given here. As to conditions: absorbance at 492 nm. From the text:
According to the chemical loading method (unless otherwise specified, the method is the same as that of Embodiment 5) of Embodiment 5, the RNA nanoparticles formed by the self-assembly of the previous R-15, R-16, R-17, R-18, R-19, R-20 and R-21 in Embodiment 9, and the DNA nanoparticles formed by the self-assembly of the D-8, D-9, D-10, D-11, D-12, D-13 and D-14 in Embodiment 10 are respectively used as doxorubicin loading carriers, doxorubicin loading rates measured are respectively as follows:
According to the chemical loading method (unless otherwise specified, the method is the same as that of Embodiment 5) of Embodiment 5, the DNA nanoparticles formed by the self-assembly of the previous D-10 and D-14 in Embodiment 10 are used as a daunorubicin loading carrier.
According to a chemical loading method of Embodiment 5 (unless otherwise specified, the method is the same as that of Embodiment 5, the same molar number of the epirubicin is used as a loading amount), nucleic acid nanoparticles (a molecular weight is 29550, it is similar to the RNA nanoparticles in Embodiment 1, and a difference is that a fluorescent label on a c-strand is Cy5) are used as a carrier, and respectively loaded with: epirubicin, methotrexate, pirarubicin, daunorubicin, […], 10-hydroxycamptothecin, aspirin and gemcitabine.
Herein, when a standard curve is drawn, the absorbance of the above drugs on the microplate reader is measured respectively. The absorbance of the epirubicin, methotrexate, pirarubicin, daunorubicin, […], 10-hydroxycamptothecin, aspirin and gemcitabine is respectively detected at the following wavelengths: 492 nm, 303 nm, 492 nm, 492 nm, 265 nm, 384 nm, 225 nm and 268 nm. The standard curves obtained correspondingly are respectively shown in FIG. 48a, FIG. 49, FIG. 50sa, FIG. 51, FIG. 52, FIG. 53, FIG. 54a and FIG. 55. […]
B3 returned a daunorubicin loading rate of 24.0.

Still in this data set, the particulars now being: chemical loading method of Embodiment 5.
Turning to B1, the doxorubicin loading rate stood at 28.0.
On the same count and under the same terms, the value for B2 was 26.8; that for B3 was 18.9.
Still for that read-out and setting: in the case of B4 it was 27.9.

Test system in a further data set: not listed separately
Nature of the data set: Particle size measurement (DLS hydrodynamic size). It counts as physicochemical. As to conditions: DLS hydrodynamic size. From the text: 1. Preparing a potential sample (conventional-sequence DNA self-assembly product D-7) and putting into a sample pool, opening a sample pool cover of an instrument, and placing the instrument;
2. opening software, and clicking a menu, so a manual measurement parameter setting dialog box appears;
3. setting a software detection parameter; and then
4. clicking Ok to complete the settings, when a measurement dialog box appears, clicking Start to start, a DLS measurement value result of a hydrodynamic size of the self-assembly product D-7 is shown below in Table 40: […]
In the case of B1, the “Mean particle size (nm)” value stood at 7.460 nm.
Still for that read-out and setting: in the case of B2 it was 7.472 nm; in that of B3, 7.220 nm; in that of B4, 7.920 nm.
